Measurements reported in US20230303685A1 (ELECTRA THERAPEUTICS, published 2023).
Changes are numbered by the printed parent chain.

T1: Human SIRPγ
T1 construct: also called human SIRPγ extracellular domain, plate-coated
T1 chain: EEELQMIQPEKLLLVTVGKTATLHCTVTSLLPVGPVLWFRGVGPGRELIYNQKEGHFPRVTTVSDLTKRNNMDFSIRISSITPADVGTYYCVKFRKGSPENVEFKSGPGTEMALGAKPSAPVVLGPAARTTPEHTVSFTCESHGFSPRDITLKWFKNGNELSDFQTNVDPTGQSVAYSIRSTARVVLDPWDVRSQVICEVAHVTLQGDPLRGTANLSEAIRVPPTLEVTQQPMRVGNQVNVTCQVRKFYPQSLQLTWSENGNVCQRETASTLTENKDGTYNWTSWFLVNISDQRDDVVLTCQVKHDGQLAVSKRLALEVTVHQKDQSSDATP

T2: Human SIRPγ CHO
T2 construct: also called human SIRPγ on CHO cells
T2 chain: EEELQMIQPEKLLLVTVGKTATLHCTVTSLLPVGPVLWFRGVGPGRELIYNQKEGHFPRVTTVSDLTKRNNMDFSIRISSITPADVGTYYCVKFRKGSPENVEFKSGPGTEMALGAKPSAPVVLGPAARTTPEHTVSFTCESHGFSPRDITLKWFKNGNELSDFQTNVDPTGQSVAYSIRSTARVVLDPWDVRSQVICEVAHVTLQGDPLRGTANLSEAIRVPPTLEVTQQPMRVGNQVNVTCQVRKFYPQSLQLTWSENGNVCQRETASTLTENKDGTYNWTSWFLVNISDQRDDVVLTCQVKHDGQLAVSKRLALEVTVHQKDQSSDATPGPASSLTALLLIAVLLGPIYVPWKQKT

T3: Human SIRPβ1
T3 construct: also called human SIRPβ1 extracellular domain, plate-coated
T3 chain: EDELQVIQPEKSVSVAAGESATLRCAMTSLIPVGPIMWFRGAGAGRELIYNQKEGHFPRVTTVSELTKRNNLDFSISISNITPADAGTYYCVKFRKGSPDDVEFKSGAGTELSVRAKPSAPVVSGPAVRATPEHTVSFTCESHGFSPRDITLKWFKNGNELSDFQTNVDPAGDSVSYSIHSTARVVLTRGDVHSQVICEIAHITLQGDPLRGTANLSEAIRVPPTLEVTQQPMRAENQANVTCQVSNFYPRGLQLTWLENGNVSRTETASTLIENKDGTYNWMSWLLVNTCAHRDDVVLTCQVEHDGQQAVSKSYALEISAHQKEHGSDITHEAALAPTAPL

B1: Antibody 13 (antibody, V domains shown)
VH: EVQMLESGGGLVQPGGSLRLSCAASGFTFSSYAMSWVRQAPGKGLEWVSAISGSGSSTHYADSVKGRFTISRDNSKNTLYLQMNSLRAEDTAVYYCAAYSGSYYYYGMDVWGQGTTVTVSS
VL: EIVMTQSPATLSVSPGERATLSCRASQSVSRNLAWYQQKSGQAPRLLIYGASTRATGIPARFSGSGSGTEFTLTISSLQSEDFAGYYCQQYNNWPYTFGQGTKLEIK
notes: Human variable region, rat IgG2b Fc; from hybridoma
B2: Antibody 29 (antibody, V domains shown)
VH: B1 VH
VL: B1 VL
B3: Antibody 25 (antibody, V domains shown)
VH: B1 VH
VL: B1 VL
notes: Variable regions of Antibody 13
B4: Antibody 12 (antibody, V domains shown)
VH: B1 VH with M4V
VL: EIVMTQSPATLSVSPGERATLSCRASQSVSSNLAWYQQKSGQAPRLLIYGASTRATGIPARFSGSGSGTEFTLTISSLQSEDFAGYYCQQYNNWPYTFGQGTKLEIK
notes: as for B1
B5: Antibody 11 (antibody, V domains shown)
VH: EVQLVESGGGLVQPGGSLRLSCAASGFTFSSYWMHWVRQAPGKGLVWVSRIHNDGSRTSYADSVKGRFTISRDNAKNTLYLQMSSLRAEDTAVYYCTRDPPPYDILTGYPFDYWGQGTLVTVSS
VL: DIQMTQSPSSVSASVGDRVTITCRASQDISSWLAWFQQKPGKAPKLLIYGASSLQSGVPSRFSGSGSGTDFTLTISSLQPEDFATYYCQEANSFPYTFGQGTKLEIK
notes: as for B1
B6: Antibody 15 (antibody, V domains shown)
VH: QIQLVQSGPELKKPGETVKISCKGSGYTFRNFGMNWVKQAPGMGLKWMVWIDTNTGEPTYAEEFKGRFAFSLETSASTAYLQINNLKNEDTATYFCARSRGNYFAMEYWGQGTSVTVSS
VL: DIKMTQSPSSMYASLGERVTVTCKASQDINRYLSWFQQKPGKSPKTLIYRANRLVDGVPSRFSGSGSGQDYSLTISSLEYEDMGFYYCLQYDEFPFTFGSGTKLEIK
notes: Mouse variable region, mouse IgG2a Fc; from hybridoma

Tests used:
[1] = biological target: T4, Human SIRPγ conjugated to an Fc region (human); test: BLI blocking; 200 nM antibody pre-incubated with 20 nM SIRPγ-Fc, binding to immobilised CD47-His (competitor), % of response of SIRPγ-Fc alone
T4 construct: also called SIRPγ-Fc; SIRP-Fc; not shown: Fc region

[2] = biological target: T5, human SIRPα V1-His monomer (human, UniProt P78324 31-373, limits assumed); test: BLI (Octet); antibody on anti-mouse IgG capture tip, SIRP-His monomer at 100, 33.3, 11.1 nM, 1:1 fit, mean KD
T5 construct: 'SIRP-His monomer protein' of the Octet assay; also called SIRP-His; not shown: His tag
Method: (§1) Select SIRP antibodies were tested for their affinities to human SIRPα, SIRPβ1, and SIRPγ using a biolayer interferometry (BLI) Octet system (Pall ForteBio). Each SIRP antibody with rat or mouse Fc was immobilized on a biosensor tip by an anti-mouse IgG capture (AMC). Antibodies with human Fc were digested with gingipain K enzyme to yield monomeric F(ab′), biotinylated, then coated onto streptavidin biosensors. […] The biosensors were then exposed to wash buffer to measure off-rate kinetics. The resulting kinetic data were analyzed and fitted using a 1:1 binding model with kₒₙ and kdis fitted separately at each SIRP-His protein concentration. KD affinities were calculated as kdis to kₒₙ ratio at each concentration of SIRP-His and averaged.

[3] = biological target: T6, human SIRPα V1 extracellular domain, monomeric (human, UniProt P78324 31-373); test: SPR (Biacore); antibody captured by anti-IgG on chip, monomeric SIRPα extracellular domain as analyte, 1:1 model
T6 construct: also called hSIRPα V1
Method: (§2) Selected antibodies were tested for their affinities to two hSIRPα variants (V1 and V2), and to cynomolgus monkey (herein referred to as “cyno”) SIRPα. The affinities of these SIRP antibodies were determined using surface plasmon resonance. The SIRP antibodies were flowed onto a chip and captured by an anti-mouse IgG or an anti-human IgG covalently coupled to the surface of the chip. A three-point titration of the extracellular binding domain of hSIRPα was performed per the manufacturer's recommended protocols.

[4] = biological target: T7, cynomolgus monkey SIRPα extracellular domain, monomeric (cynomolgus monkey, UniProt A0A2K5VYQ9 31-372); test: as above
T7 construct: extracellular domain; also called Cyno SIRPα
Method: as §2

human SIRPγ-His monomer [5] = biological target: T8, human SIRPγ-His monomer (human); test: BLI (Octet); antibody on anti-mouse IgG capture tip, SIRP-His monomer; no dissociation seen in 600 s
T8 construct: 'SIRP-His monomer protein' of the Octet assay; also called SIRP-His; not shown: His tag
Method: as §1

[6] = biological target: T9, human SIRPα V2 extracellular domain, monomeric (human, UniProt P78324 31-370); test: SPR (Biacore); antibody captured by anti-IgG on chip, monomeric SIRPα extracellular domain as analyte, 1:1 model
T9 construct: also called hSIRPα V2
Method: as §2

Human SIRPγ [7] = biological target: T1, Human SIRPγ; test: ELISA, extracellular domain coated at 1 µg/mL, purified antibody titrated, anti-human IgG, chemiluminescence
Method: (§3) Select SIRP antibodies were purified by Protein G from hybridoma supernatants and analyzed in a titration via ELISA. Briefly, 1 μg/mL of extracellular domain SIRPα was coated onto high protein-binding plates and blocked. Purified antibodies were added in a titration to the coated plates. The antibodies were detected by an anti-rat IgG antibody and a chemiluminescent substrate.
(§4) FIGS. 3A-3C show binding curves of SIRP antibodies and two isotype controls with human Fc to human SIRPα V1, human SIRPβ1, human SIRPγ and cynomolgus monkey SIRPα by ELISA. […] Isotype control 1 was an unrelated human IgG1 antibody with irrelevant CDRs. Isotype control 2 was the same as isotype control 1 but contained the same amino acid substitutions in the Fc region as some of the selected SIRP antibodies for increased FcγR binding (referring to Table 11). DNA was transiently transfected into CHO cells for 7 days. Antibodies were purified by Protein A from cell supernatants and analyzed in a titration via ELISA as previously described in FIGS. 2A-2B using an anti-human IgG antibody as the detection antibody.

[8] = biological target: T6, human SIRPα V1 extracellular domain, …; test: as above
Method: as §3, §4

Human SIRPγ CHO [9] = biological target: T2, Human SIRPγ CHO; test: flow cytometry, stably transfected CHO cells, antibody titrated, labelled anti-human IgG, MFI
Method: (§5) Selected antibodies were tested for binding to stably transfected human SIRPα, SIRPβ1 (co-transfected with DAP12), or SIRPγ Chinese hamster ovary (CHO) cells via flow cytometry. A titration of SIRP antibodies was added to the cells and detected using a fluorescently labelled secondary antibody. Graph depicts the median fluorescence intensity (MFI) at each concentration.

Human SIRPγ [10] = biological target: T1, Human SIRPγ; test: ELISA, extracellular domain coated at 2 µg/mL, purified antibody titrated, anti-rat or anti-mouse IgG, chemiluminescence
Method: as §3, with “2” for “1”, “of each of the SIRPs” for “SIRPα”, “IgG or an anti-mouse IgG” for “IgG”

Human SIRPβ1 = biological target: T3, Human SIRPβ1; test: as above
Method: as §3, with “2” for “1”, “of each of the SIRPs” for “SIRPα”, “IgG or an anti-mouse IgG” for “IgG”

Human SIRPβ1/DAP12 CHO = biological target: T10, Human SIRPβ1/DAP12 CHO; test: flow cytometry, stably transfected CHO cells, antibody titrated, labelled anti-rat or anti-mouse IgG, MFI
T10 construct: also called human SIRPβ1 on CHO cells co-transfected with DAP12; copies: 1 + 2
T10 sequence (DAP12, as listed by the source limits assumed): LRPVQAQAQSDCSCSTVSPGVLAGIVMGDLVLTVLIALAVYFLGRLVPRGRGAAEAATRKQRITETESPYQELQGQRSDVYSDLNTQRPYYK
Method: as §5

Human SIRPγ CHO [11] = biological target: T2, Human SIRPγ CHO; test: as above
Method: as §5

[12] = biological target: T6, human SIRPα V1 extracellular domain, …; test: ELISA, extracellular domain coated at 1 µg/mL, purified antibody titrated, anti-rat IgG, chemiluminescence
Method: as §3

human SIRPβ1-His monomer = biological target: T11, human SIRPβ1-His monomer (human, UniProt O00241 30-371); test: BLI (Octet); antibody on anti-mouse IgG capture tip, SIRP-His monomer at 100, 33.3, 11.1 nM, 1:1 fit, mean KD
T11 construct: 'SIRP-His monomer protein' of the Octet assay; also called SIRP-His; not shown: His tag
Method: as §1

human SIRPγ-His monomer [13] = biological target: T8, human SIRPγ-His monomer; test: as above
Method: as §1

[14] = biological target: T7, cynomolgus monkey SIRPα extracellular …; test: ELISA, extracellular domain coated at 2 µg/mL, purified antibody titrated, anti-rat or anti-mouse IgG, chemiluminescence
Method: as §3, with “2” for “1”, “of each of the SIRPs” for “SIRPα”, “IgG or an anti-mouse IgG” for “IgG”

Binder	SIRPγ-CD47 Response (%) [1]	Kd [2]	Kd [3]	Kd [4]	Kd (human SIRPγ-His monomer [5])	Kd [6]	EC50 (read off the curve) (Human SIRPγ [7])	binding result (Human SIRPγ [10])	binding result (Human SIRPβ1)	binding result (Human SIRPβ1/DAP12 CHO)	binding result (Human SIRPγ CHO [11])	Kd (human SIRPγ-His monomer [13])	other results
B1	111%	0.922 nM	12.6 nM	16.7 nM	< 0.001 nM	–	–	–	–	–	–	–	–
B2	–	–	8.32 nM	11.1 nM	–	10.3 nM	~0.05 µg/mL	–	–	–	–	–	EC50 (read off the curve) [8]: ~0.06 µg/mL
B3	–	–	11.4 nM	12.6 nM	–	9.09 nM	~0.04 µg/mL	–	–	–	–	–	EC50 (read off the curve) (Human SIRPγ CHO [9]): ~0.7 µg/mL
B4	120%	5.31 nM	–	–	< 0.001 nM	–	–	binds	binds	binds	binds	–	–
B5	-3.8%	3.74 nM	–	–	–	–	–	binds	binds	binds	binds	13.3 nM	EC50 (read off the curve) [12]: ~0.1 µg/mL; Kd (human SIRPβ1-His monomer): 61.9 nM
B6	129%	0.244 nM	–	–	–	–	–	–	binds	binds	–	54.4 nM	EC50 (read off the curve) (Human SIRPγ [10]): ~0.2 µg/mL; EC50 (read off the curve) [14]: ~0.1 µg/mL; EC50 (read off the curve) (Human SIRPγ CHO [11]): ~2 µg/mL
